In the Immune Epitope Database (IEDB) one finds Kd and IC50 data, which are given here for 13 sequences.

In experiment [1] the target is HLA-B*58:01. The experiment is described as follows: IEDB peptide-MHC binding, purified MHC/competitive/radioactivity; filed as Kd, often an IC50 or EC50 that approximates it; ≥ and ≤ were set here for values at or beyond the usual limits of such assays.
In experiment [2] the target is HLA-B*51:01. The experiment can be described thus: IEDB peptide-MHC binding, purified MHC/direct/fluorescence; filed as Kd, often an IC50 or EC50 that approximates it; ≥ and ≤ were set here for values at or beyond the usual limits of such assays. The conditions noted are these: source organism: Escherichia coli O157:H7.
For another experiment, the target named is HLA-B*07:02. The description is as above.
Experiment [3] concerns the target HLA-B*15:01. The experiment can be described thus: IEDB peptide-MHC binding, purified MHC/competitive/fluorescence; ≥ and ≤ were set here for values at or beyond the usual limits of such assays.
In experiment [4] the target is HLA-A*02:01. Described as above. The conditions noted are these: source organism: Zaire ebolavirus.
A further experiment concerns the target HLA-A*24:02. Described as above. The conditions noted are these: source organism: Zaire ebolavirus.
The target of a further experiment is HLA-B*48:01. The experiment can be described thus: IEDB peptide-MHC binding, purified MHC/direct/fluorescence; filed as Kd, often an IC50 or EC50 that approximates it; ≥ and ≤ were set here for values at or beyond the usual limits of such assays.
In another experiment the target is HLA-A*02:03. The description is as above. Conditions: source organism: Zaire ebolavirus.
In experiment [5] the target is HLA-B*18:01. Described as above. Conditions: source organism: Ebola virus - Gabon (1994-1997).
The target of the next experiment is HLA-A*02:12. The description is as above. Conditions: source organism: Zaire ebolavirus.
The target of experiment [6] is HLA-B*39:01. The experiment is described as above.
Another experiment addresses HLA-A*02:16. Described as above. Conditions: source organism: Zaire ebolavirus.
The target in the next experiment is HLA-A*02:11. The experiment is described as above. The conditions noted are these: source organism: Zaire ebolavirus.
For the next experiment, the target named is HLA-B*27:05. Described as above. The conditions noted are these: source organism: Ebola virus - Gabon (1994-1997).
A further experiment addresses HLA-B*57:01. Described as above. The conditions noted are these: source organism: Ebola virus - Gabon (1994-1997).
For the next experiment, the target named is HLA-A*11:01. The experiment is described as above. Conditions: source organism: Ebola virus - Gabon (1994-1997).
The next experiment addresses HLA-B*44:02. Described as above. The conditions noted are these: source organism: Ebola virus - Gabon (1994-1997).
The target in another experiment is HLA-B*40:01. Described as above. Conditions: source organism: Ebola virus - Gabon (1994-1997).
For experiment [7], the target named is HLA-B*15:01. The description is as above. The conditions noted are these: source organism: Ebola virus - Gabon (1994-1997).
Experiment [8] has as its target HLA-B*46:01. The description is as above. Conditions: source organism: Ebola virus - Gabon (1994-1997).
For a further experiment, the target named is HLA-A*02:19. The experiment is described as above. The conditions noted are these: source organism: Zaire ebolavirus.
In a further experiment the target is HLA-A*31:01. The description is as above. The conditions noted are these: source organism: Ebola virus - Gabon (1994-1997).
The target in another experiment is HLA-A*03:01. Described as above.
Experiment [9] addresses HLA-B*58:01. The experiment is described as above.
The target of the next experiment is HLA-A*01:01. The description is as above. The conditions noted are these: source organism: Ebola virus - Gabon (1994-1997).
Experiment [10] addresses HLA-B*51:01. The experiment is described as follows: IEDB peptide-MHC binding, purified MHC/competitive/fluorescence; filed as Kd, often an IC50 or EC50 that approximates it; ≥ and ≤ were set here for values at or beyond the usual limits of such assays. The conditions noted are these: source organism: Zaire ebolavirus.
The next experiment addresses HLA-B*27:03. The description is as above. The conditions noted are these: source organism: Zaire ebolavirus.
In another experiment the target is HLA-B*15:17. The experiment is described as above. The conditions noted are these: source organism: Zaire ebolavirus.
The next experiment addresses HLA-A*69:01. Described as above. The conditions noted are these: source organism: Zaire ebolavirus.
The next experiment concerns the target HLA-A*26:01. Described as above. Conditions: source organism: Zaire ebolavirus.
Experiment [11] has as its target HLA-A*02:01. The experiment is described as above. Conditions: source organism: Zaire ebolavirus.
Experiment [12] concerns the target HLA-B*51:01. The experiment can be described thus: IEDB peptide-MHC binding, purified MHC/competitive/radioactivity; filed as Kd, often an IC50 or EC50 that approximates it; ≥ and ≤ were set here for values at or beyond the usual limits of such assays. The conditions noted are these: source organism: Dengue virus 2 Jamaica/1409/1983.
A further experiment concerns the target HLA-B*35:01. The experiment is described as above. The conditions noted are these: source organism: Dengue virus 2 Jamaica/1409/1983.
The target in another experiment is HLA-B*53:01. The description is as above. The conditions noted are these: source organism: Dengue virus 2 Jamaica/1409/1983.
Experiment [13] addresses HLA-A*68:02. Described as above. Conditions: source organism: Dengue virus 2 Jamaica/1409/1983.
A further experiment deals with HLA-A*29:02. The experiment is described as follows: IEDB peptide-MHC binding, purified MHC/competitive/fluorescence; filed as Kd, often an IC50 or EC50 that approximates it; ≥ and ≤ were set here for values at or beyond the usual limits of such assays. The conditions noted are these: source organism: Giardia lamblia ATCC 50803.
Experiment [14] has as its target HLA-A*68:02. The experiment is described as follows: IEDB peptide-MHC binding, purified MHC/direct/fluorescence; filed as Kd, often an IC50 or EC50 that approximates it; ≥ and ≤ were set here for values at or beyond the usual limits of such assays. Conditions: source organism: Zaire ebolavirus.
Experiment [15] has as its target HLA-B*18:01. The experiment is described as follows: IEDB peptide-MHC binding, purified MHC/competitive/fluorescence; filed as Kd, often an IC50 or EC50 that approximates it; ≥ and ≤ were set here for values at or beyond the usual limits of such assays. The conditions noted are these: source organism: Zaire ebolavirus.
Experiment [16] has as its target HLA-B*39:01. The experiment is described as above. The conditions noted are these: source organism: Zaire ebolavirus.
In experiment [17] the target is HLA-B*15:01. The experiment is described as above. The conditions noted are these: source organism: Zaire ebolavirus.
In experiment [18] the target is HLA-B*46:01. Described as above. The conditions noted are these: source organism: Zaire ebolavirus.
[19] abbreviates: source organism: Zaire ebolavirus.
[20] abbreviates: source organism: Ebola virus - Gabon (1994-1997).

The Kd is the equilibrium constant for the complex coming apart. For the sequence LASAILNAHE, in the experiment with HLA-B*58:01 [1] (source organism: Dengue virus 4 Philippines/H241/1956), the dissociation constant Kd was 0.983 µM.
LPQRHHIML: the dissociation constant Kd with HLA-B*51:01 [2] is at least 20 µM; in the experiment with HLA-B*07:02 (source organism: Escherichia coli O157:H7) it was 0.0015 µM.
One may read the IC50 as the concentration that inhibits the measured activity by half. Read a high IC50 as lower potency. In the case of RTIHHASAP, the concentration for half-maximal inhibition (IC50) is 36.4 µM with HLA-B*15:01 [3] (setting [19]) and at least 622 µM in the experiment with HLA-A*02:01 [4].
FVTLDGQQF: the values for the half-inhibitory concentration (IC50) with HLA-B*15:01 [3] (setting [19]), with HLA-A*24:02 and in the experiment with HLA-A*02:01 [4] were 61.1 µM, 17.6 µM and at least 121 µM, respectively.
With GRLVTVNPF, the Kd with HLA-B*48:01 (source organism: West Nile virus) was at least 20 µM.
Regarding LIVKTVLDH, the IC50 with HLA-B*15:01 [3] (setting [19]) is at least 73.9 µM.
In the experiment with HLA-B*15:01 [3] (source organism: Homo sapiens), SYFTNMFATWSP yielded a half-inhibitory concentration (IC50) of 5.8 µM.
Consider YFTFDLTAL, for which the Kd with HLA-B*07:02 (setting [20]), with HLA-A*02:03, in the experiment with HLA-B*18:01 [5], with HLA-A*02:12, with HLA-B*39:01 [6] (setting [20]) and with HLA-A*02:16 was at least 20 µM in each case. In addition, the Kd with HLA-A*02:11, with HLA-B*27:05, with HLA-B*57:01, in the experiment with HLA-A*11:01, with HLA-B*44:02 and with HLA-B*40:01 was at least 20 µM in each case. The Kd with HLA-B*15:01 [7], with HLA-B*46:01 [8], with HLA-A*02:19, in the experiment with HLA-A*31:01, with HLA-A*03:01 (setting [20]) and with HLA-B*58:01 [9] (setting [20]) was at least 20 µM throughout. Besides, the Kd with HLA-B*48:01 (setting [20]), in the experiment with HLA-A*01:01, in the experiment with HLA-B*51:01 [10], with HLA-B*27:03, in the experiment with HLA-B*15:17 and with HLA-A*69:01 was at least 20 µM throughout. Besides, the equilibrium dissociation constant (Kd) in the experiment with HLA-A*26:01 and with HLA-A*02:01 [11] was at least 20 µM each time.
For WMASVEPHW, the dissociation constant (Kd) with HLA-B*58:01 [1] (source organism: Dengue virus 1 Brazil/97-11/1997) stood at 0.0133 µM.
On to MAAILAYTI, for which the Kd with HLA-B*51:01 [12] worked out at 0.0101 µM; in the experiment with HLA-B*35:01, 1.73 µM; with HLA-B*53:01, 0.0132 µM; with HLA-B*58:01 [1] (source organism: Dengue virus 2 Jamaica/1409/1983), 0.00126 µM; with HLA-A*68:02 [13], 0.00473 µM.
With HHAVPNGTL, in the experiment with HLA-B*39:01 [6] (source organism: Influenza A virus (A/kunke/1/71(H3N2))), the dissociation constant (Kd) is 0.0521 µM.
On to PPIPIWLLF, for which, in the experiment with HLA-A*29:02, the Kd was found to be 0.197 µM.
For the sequence WLQKIPLQW, the Kd with HLA-A*02:03, with HLA-A*02:12, in the experiment with HLA-A*02:16, with HLA-A*02:11, with HLA-A*02:19 and in the experiment with HLA-A*03:01 (setting [19]) was at least 20 µM throughout. Moreover, the Kd with HLA-B*58:01 [9] (source organism: Ebola virus - Eckron (Zaire, 1976)) is 0.693 µM; with HLA-A*68:02 [14] it was at least 20 µM; with HLA-B*51:01 [10], at least 20 µM; with HLA-B*18:01 [15], at least 20 µM; with HLA-B*39:01 [16], at least 20 µM; in the experiment with HLA-B*27:03, at least 20 µM. Besides, the dissociation constant Kd with HLA-B*15:17, with HLA-B*15:01 [17], with HLA-B*46:01 [18], in the experiment with HLA-A*69:01, in the experiment with HLA-A*26:01 and in the experiment with HLA-A*02:01 [11] was at least 20 µM each time.
